Experimental data as given in the supplement of paper PMC12042874.
± gives the uncertainty stated by the source.

How the values were obtained:
[1] = amyloid nucleation score (Sup35N fusion, yeast selection) (log enrichment); library NNK1; higher = more nucleation; inactive = no reads after selection
Procedure, shortened: (§1)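 The nucleation score is the DiMSum log enrichment of output over input reads, centred on the mode score of non-aggregating sequences. Only sequences with 100 or more input reads were scored, using Illumina sequencing of input and output plasmid inserts. Psi-negative yeast expressing Sup35N fused to peptides of 20 random codons were induced 24 hours with 100 μM copper sulfate and grown 7 days at 30°C on medium lacking adenine and uracil.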

[2] = amyloid nucleation score (Sup35N fusion, yeast selection) (log enrichment); library NNK2; higher = more nucleation; inactive = no reads after selection
Procedure, shortened: as §1

| Substance | amyloid nucleation score [1] | amyloid nucleation score [2] |
| --- | --- | --- |
| NSRNVCFWYVNCCLVHGILG | 7.543 ± 0.067 | – |
| YSIFTIKGRDCKLFITNNVS | 7.468 ± 0.045 | – |
| VPAVSCMVFTAQFDSGVYSC | -0.03 ± 0.73 | – |
| DLSSESHVFLCVAL | -0.711 ± 2.1 | – |
| SFDADFSFRVRVFYDQSISI | -0.035 ± 0.48 | – |
| TPGVKPYYWIRLTEIVATHS | 0.52 ± 1.2 | – |
| MSMLLDSDCLRYFSQEVFWV | -0.742 ± 1.4 | – |
| YTFGDAGHPESAMVTCRAYS | -0.007 ± 0.33 | – |
| PDHLTIQSCDARYGFASQL | 1.78 ± 0.47 | – |
| TRAAYLGRGREMRCIKVAFW | 1.31 ± 0.93 | – |
| PTHDILFVTDSLTAKANDMV | -0.189 ± 0.32 | – |
| LRIDFGDATSVGRRRFMCTV | -0.199 ± 1.5 | – |
| LSKKFWRFVWARLSEELIER | 0.811 ± 0.51 | – |
| LTSCLLPFDPLSNDNYKGVW | 1.78 ± 0.65 | – |
| LNMHSR | inactive | – |
| KDIEYCASMCESCPYMT | 2.86 ± 0.39 | – |
| TGNGTCCESFSRSDKENSDA | inactive | – |
| FTSFFVSV | -1.91 ± 1.9 | – |
| SDYSLTCMGVYGEGKTRGNL | 0.045 ± 0.32 | – |
| CALAIRIVCS | inactive | – |
| IFVYCEFNKNRIPALASWVG | 0.93 ± 0.43 | – |

| Substance | amyloid nucleation score [1] | amyloid nucleation score [2] |
| --- | --- | --- |
| DVLLCSIRTSSHDMIIMRKR | 0.553 ± 0.65 | – |
| YLCSSVPLSEHNLILSITWD | inactive | – |
| AYNDSAVGRAGGLFVVGLFV | -0.51 ± 0.58 | – |
| WAMSTFSVYSKRTFVARWDK | 0.048 ± 0.29 | – |
| GYPSARIKSDMYWNPMNVPT | – | -0.114 ± 0.37 |
| LSVEFARYTG | – | 1.25 ± 0.15 |
| RPLSAEACPYVCTVSWDGLW | – | 1.02 ± 0.14 |
| DHNGVKSTSHKSSFFMSTGR | – | 0.056 ± 0.39 |
| YHKRSPIYSVLYDLDSFK | – | -1.04 ± 1.1 |
| ACNFQVCGWERQSSRFR | – | 3.14 ± 0.087 |
| TGALHWVNAYVLFRKVCKGM | – | 0.297 ± 0.26 |
| KLDVAAFVKVAE | – | 6.142 ± 0.039 |
| AASNQMSQ | – | inactive |
| SMLGKRIFYRCSRLMHNF | – | -0.175 ± 0.27 |
| KSEVWSYLI | – | 4.51 ± 0.061 |
| CSLVAPGTYYYGEWFPGQMS | – | -0.66 ± 0.29 |
| QFNYHNLNLTNFKSLCASTD | – | 0.019 ± 0.61 |
| AKGMGPKNDTTYYFPVSVFE | – | -0.213 ± 0.48 |
| LKNFNLRIMTTPLNCNCNTY | – | -0.434 ± 0.29 |
| CMGFLYTNTYCGGILIELFI | – | inactive |
| TVLLWD | – | inactive |

| Substance | amyloid nucleation score [1] | amyloid nucleation score [2] |
| --- | --- | --- |
| VNTTDKWKVSEYKYQND | – | 0.254 ± 0.19 |
| CGLLYREVSIGQGSPTGVRD | – | inactive |
| AAIRH | – | -0.328 ± 0.49 |
| CVREIYYVFCINSPVIAMDC | – | 6.149 ± 0.038 |
| AIQLCLWSKRSQGRWFTLPV | – | 0.82 ± 0.47 |
| SLPRWTVCVCVQADGYWMWV | – | 7.12 ± 0.084 |
| FFVDMSYPGSWNICYLTRFC | – | inactive |
| GVNSLVERFNLWYVLGERTF | – | -0.35 ± 0.33 |
| HVYFSCAYWQPVYMYCCGKQ | – | 7.771 ± 0.059 |
| CFLGHGCILVGYLRDYRLLR | – | 0.759 ± 0.67 |
| EYRLFCCWE | – | 6.04 ± 0.072 |
| TVGIAKKNMVR | – | 0.503 ± 0.43 |
| SARVSWGCWHFAMYSRCIRQ | – | inactive |
| LSWWIHVTVWFPFQVKTGYL | – | -0.904 ± 0.78 |
| RVFNLLYVLNWNAKSLSWMS | – | 4.32 ± 0.11 |
| TFQSYRDESFSWSRLVSSQR | – | -0.477 ± 0.26 |
| QRLVSLYFRLSDGHMD | – | 3.3 ± 0.06 |
| HGDVIRCRTKIIIAVFGMFM | – | 6.21 ± 0.076 |
| WLGIAAM | – | 1.15 ± 0.43 |
| QWWRYS | – | 1.17 ± 0.41 |
| RSERPFAWVMALTFTCAGGL | – | 3.47 ± 0.11 |

| Substance | amyloid nucleation score [1] | amyloid nucleation score [2] |
| --- | --- | --- |
| LSHLLDGGISLKEGYILWMM | – | -0.252 ± 0.55 |
| MFHLRSNVMPTGLVRTPMLL | – | 1.54 ± 0.44 |
| GSSVEMQLCELTSGGFDLSL | – | 0.228 ± 0.32 |
| DNKRWLRIWMKFLKGDMHGL | – | -0.283 ± 1.1 |
| PRVNILWYNRMLYAWFRPVV | – | -1.21 ± 0.55 |
| LTRKKKMQFF | – | inactive |
| VFNWTNLHYLMAQESVMGY | – | 0.148 ± 0.35 |
| NLNSFMVADYLYGDQVQKVF | – | 0.138 ± 0.8 |
| IYPDKSFMALFPMVIDFYTQ | – | -2.19 ± 0.62 |
| CTWIYTLTFFARNS | – | 0.01 ± 0.55 |
| HSFTTMFWNSAMY | – | 4.11 ± 0.062 |
| ARYLITTAQVPVLGPRSQHK | – | 0.073 ± 0.41 |
| VLSDL | – | -1.18 ± 0.75 |
| TLVLTEFDKGIDIVL | – | -0.565 ± 0.26 |
| WCLMQSFDGLSDME | – | 0.561 ± 0.62 |
| SFKSDSFTDYYLIDLAITRG | – | -0.046 ± 1 |
| CLVVLISVVPMVGSLFSRCG | – | inactive |
| SVFSYQYETKVGSQNLLEYI | – | -0.751 ± 1.1 |
| RSKHQKRSALCYFESGVTAV | – | 0.663 ± 0.37 |
| AMLLNILVPYVYSKTGRGPV | – | 1.88 ± 0.33 |
| GSRDDSTVLVRKSSCRVEGS | – | 0.665 ± 0.37 |
